According to patent US20150344570A1 (published 2015):

B1: GpH7-A5/GpH7-B3 variant Y300_08L/GpL16-k0 (antibody, human IgG1, kappa)
heavy 1: not shown
heavy 2: not shown
light: DIVMTQSPLSLPVTPGEPASISCQASESLVHSNRNTYLHWYLQKPGQSPQLLIYKVSNRFSGVPDRFSGSGSGTDFTLKISRVEAEDVGVYYCSQNTHVPPTFGQGTKVEIERTVAAPSVFIFPPSDEQLKSGTASVVCLLNNFYPREAKVQWKVDNALQSGNSQESVTEQDSKDSTYSLSSTLTLSKADYEKHKVYACEVTHQGLSSPVTKSFNRGEC
notes: He Ab; IgG1, mutation in one H chain
B2: GpH7-A5/GpH7-B3 variant E333_02A/GpL16-k0 (antibody, human IgG1, kappa)
heavy 1: not shown
heavy 2: not shown
light: B1 light
notes: change in the GpH7-B3 H chain only; also called He Ab
B3: GpH7-A5/GpH7-B3 variant A330_07I/GpL16-k0 (antibody, human IgG1, kappa)
heavy 1: not shown
heavy 2: not shown
light: B1 light
notes: as for B2
B4: GpH7-A5/GpH7-B3 variant I336_02A/GpL16-k0 (antibody, human IgG1, kappa)
heavy 1: not shown
heavy 2: not shown
light: B1 light
notes: as for B2
B5: GpH7-A5/GpH7-B3 variant A330_14T/GpL16-k0 (antibody, human IgG1, kappa)
heavy 1: not shown
heavy 2: not shown
light: B1 light
notes: as for B2
B6: GpH7-A5/GpH7-B3 variant E333_12R/GpL16-k0 (antibody, human IgG1, kappa)
heavy 1: not shown
heavy 2: not shown
light: B1 light
notes: as for B2
B7: GpH7-A5/GpH7-B3 variant A330_18N/GpL16-k0 (antibody, human IgG1, kappa)
heavy 1: not shown
heavy 2: not shown
light: B1 light
notes: as for B2
B8: GpH7-A5/GpH7-B3 variant E333_03V/GpL16-k0 (antibody, human IgG1, kappa)
heavy 1: not shown
heavy 2: not shown
light: B1 light
notes: as for B2
B9: GpH7-A5/GpH7-B3 variant I332_12R/GpL16-k0 (antibody, human IgG1, kappa)
heavy 1: not shown
heavy 2: not shown
light: B1 light
notes: as for B2
B10: GpH7-A5/GpH7-B3 variant E333_09D/GpL16-k0 (antibody, human IgG1, kappa)
heavy 1: not shown
heavy 2: not shown
light: B1 light
notes: as for B2
B11: GpH7-A5/GpH7-B3 variant A330_15Y/GpL16-k0 (antibody, human IgG1, kappa)
heavy 1: not shown
heavy 2: not shown
light: B1 light
notes: as for B2
B12: GpH7-A5/GpH7-B3 variant E333_15Y/GpL16-k0 (antibody, human IgG1, kappa)
heavy 1: not shown
heavy 2: not shown
light: B1 light
notes: as for B2
B13: GpH7-A5/GpH7-B3 variant Y300_14T/GpL16-k0 (antibody, human IgG1, kappa)
heavy 1: not shown
heavy 2: not shown
light: B1 light
notes: as for B1
B14: GpH7-A5/GpH7-B3 variant Y300_11K/GpL16-k0 (antibody, human IgG1, kappa)
heavy 1: not shown
heavy 2: not shown
light: B1 light
notes: as for B1
B15: GpH7-A5/GpH7-B3 variant A327_13S/GpL16-k0 (antibody, human IgG1, kappa)
heavy 1: not shown
heavy 2: not shown
light: B1 light
notes: as for B2
B16: GpH7-A5/GpH7-B3 variant K334_09D/GpL16-k0 (antibody, human IgG1, kappa)
heavy 1: not shown
heavy 2: not shown
light: B1 light
notes: as for B2
B17: GpH7-A5/GpH7-B3 variant A330_20W/GpL16-k0 (antibody, human IgG1, kappa)
heavy 1: not shown
heavy 2: not shown
light: B1 light
notes: as for B2
B18: GpH7-A5/GpH7-B3 variant A330_04F/GpL16-k0 (antibody, human IgG1, kappa)
heavy 1: not shown
heavy 2: not shown
light: B1 light
notes: as for B2
B19: GpH7-A5/GpH7-B3 variant A330_09D/GpL16-k0 (antibody, human IgG1, kappa)
heavy 1: not shown
heavy 2: not shown
light: B1 light
notes: as for B2
B20: GpH7-A5/GpH7-B3 variant E333_01G/GpL16-k0 (antibody, human IgG1, kappa)
heavy 1: not shown
heavy 2: not shown
light: B1 light
notes: as for B2
B21: GpH7-A5/GpH7-B3 variant E333_06M/GpL16-k0 (antibody, human IgG1, kappa)
heavy 1: not shown
heavy 2: not shown
light: B1 light
notes: as for B2
B22: GpH7-A5/GpH7-B3 variant E333_07I/GpL16-k0 (antibody, human IgG1, kappa)
heavy 1: not shown
heavy 2: not shown
light: B1 light
notes: as for B2
B23: GpH7-A5/GpH7-B3 variant A330_08L/GpL16-k0 (antibody, human IgG1, kappa)
heavy 1: not shown
heavy 2: not shown
light: B1 light
notes: as for B2

Experiments:
[1] = biological target: T1, FcγRIIb extracellular domain with C-terminal His tag (human, UniProt P31994 43-217); assay: SPR (Biacore), captured antibody, FcγR as analyte; relative binding
T1 construct: extracellular domain; expressed in FreeStyle293 cells; analyte in Biacore; also called FcgRIIb; 2b
T1 sequence (looked up): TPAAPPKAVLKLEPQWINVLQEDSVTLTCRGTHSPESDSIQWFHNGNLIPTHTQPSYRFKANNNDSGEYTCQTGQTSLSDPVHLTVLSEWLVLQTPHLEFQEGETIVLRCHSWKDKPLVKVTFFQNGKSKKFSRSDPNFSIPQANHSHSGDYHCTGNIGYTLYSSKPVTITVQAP

[2] = biological target: T2, FcγRIa extracellular domain with C-terminal His tag (human, UniProt P12314 16-292); assay: as above
T2 construct: extracellular domain; expressed in FreeStyle293 cells; analyte in Biacore; also called FcgRI; 1a
T2 sequence (P12314 16-292): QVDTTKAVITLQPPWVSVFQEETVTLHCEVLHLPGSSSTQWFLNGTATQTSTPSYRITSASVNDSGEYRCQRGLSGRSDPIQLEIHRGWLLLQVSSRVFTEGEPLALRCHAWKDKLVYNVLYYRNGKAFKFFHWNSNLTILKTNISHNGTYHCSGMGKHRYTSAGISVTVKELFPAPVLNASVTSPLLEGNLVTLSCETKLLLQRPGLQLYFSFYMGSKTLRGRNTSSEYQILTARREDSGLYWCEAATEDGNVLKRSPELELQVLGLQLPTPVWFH

[3] = biological target: T3, FcγRIa extracellular domain with C-terminal His tag (human, UniProt P12314 16-292); assay: SPR, binding relative to GpH7-A5/GpH7-B3/GpL16-k0 = 100
T3 construct: extracellular domain; soluble analyte in Biacore; also called FcgRI; not shown: His tag at the C terminus
T3 sequence (P12314 16-292): as above

[4] = biological target: T4, FcγRIIb extracellular domain with C-terminal His tag (human, UniProt P31994 43-217); assay: as above
T4 construct: extracellular domain; soluble analyte in Biacore; also called FcgRIIb; not shown: His tag at the C terminus
T4 sequence (looked up): T1 sequence (looked up)

Binder | He/Con_2b [1] | He/Con_1a [2] | He/Con_1a [3] | He/Con_2b [4]
B1 | 73.6 % of HeCon Ab (GpH7-A5/GpH7-B3/GpL16-k0 = 100) | 113 % of HeCon Ab (GpH7-A5/GpH7-B3/GpL16-k0 = 100) |  | 
B2 |  |  | 103 % of control | 83.8 % of control
B3 |  |  | 105 % of control | 67.1 % of control
B4 |  |  | 106 % of control | 84.9 % of control
B5 |  |  | 105 % of control | 77.9 % of control
B6 |  |  | 102 % of control | 80.4 % of control
B7 |  |  | 106 % of control | 63.7 % of control
B8 |  |  | 105 % of control | 93.2 % of control
B9 |  |  | 100 % of control | 48.9 % of control
B10 |  |  | 104 % of control | 94.3 % of control
B11 |  |  | 105 % of control | 95 % of control
B12 |  |  | 101 % of control | 94.4 % of control
B13 | 55.6 % of HeCon Ab (GpH7-A5/GpH7-B3/GpL16-k0 = 100) | 112 % of HeCon Ab (GpH7-A5/GpH7-B3/GpL16-k0 = 100) |  | 
B14 | 51.6 % of HeCon Ab (GpH7-A5/GpH7-B3/GpL16-k0 = 100) | 107 % of HeCon Ab (GpH7-A5/GpH7-B3/GpL16-k0 = 100) |  | 
B15 |  |  | 102 % of control | 79.5 % of control
B16 |  |  | 106 % of control | 94.8 % of control
B17 |  |  | 108 % of control | 76.1 % of control
B18 |  |  | 106 % of control | 92.8 % of control
B19 |  |  | 109 % of control | 55.6 % of control
B20 |  |  | 103 % of control | 81.4 % of control
B21 |  |  | 102 % of control | 85.4 % of control
B22 |  |  | 102 % of control | 96.2 % of control
B23 |  |  | 107 % of control | 70.5 % of control
